Reference: patent publication US20260242478A1 (published 2026)
Where no end group is shown, it is not given here.

B1: Phage-3144 (peptide)
peptide: HLPRCEPAWMCHGF
modifications: cysteine pairing not given here; also: fused to phage pIII, orientation and linker not given here
notes: Clonal phage of the Peptide-180 library, tested as crude supernatant; not shown: fused to pIII of the bacteriophage
B2: Phage-3143 (peptide)
peptide: SVPLCIPEWMCVGF
modifications: cysteine pairing not given here; also: fused to phage pIII, orientation and linker not given here
notes: as for B1
B3: Phage-3135 (peptide)
peptide: HQLMCRPAWMCEGF
modifications: cysteine pairing not given here; also: fused to phage pIII, orientation and linker not given here
B4: Phage-3138 (peptide)
peptide: DTRICKPEWMCMGM
modifications: cysteine pairing not given here; also: fused to phage pIII, orientation and linker not given here
B5: Phage-3137 (peptide)
peptide: IVPKCQPSWMCFGF
modifications: cysteine pairing not given here; also: fused to phage pIII, orientation and linker not given here
B6: Phage-3142 (peptide)
peptide: AGVYCTPMWMCTGF
modifications: cysteine pairing not given here; also: fused to phage pIII, orientation and linker not given here
B7: Phage-3140 (peptide)
peptide: IDTICRPSWMCLGF
modifications: cysteine pairing not given here; also: fused to phage pIII, orientation and linker not given here
B8: Phage-3132 (peptide)
peptide: THIICKPAWMCDAW
modifications: cysteine pairing not given here; also: fused to phage pIII, orientation and linker not given here
B9: Phage-3130 (peptide)
peptide: SVGYCVPSWMCSGF
modifications: cysteine pairing not given here; also: fused to phage pIII, orientation and linker not given here
B10: Phage-3136 (peptide)
peptide: VVQICKPSWMCEGF
modifications: cysteine pairing not given here; also: fused to phage pIII, orientation and linker not given here
B11: Phage-3141 (peptide)
peptide: YERVCEPLWMCTGF
modifications: cysteine pairing not given here; also: fused to phage pIII, orientation and linker not given here
B12: Phage-3134 (peptide)
peptide: AERLCVPAWMCLNL
modifications: cysteine pairing not given here; also: fused to phage pIII, orientation and linker not given here
B13: Phage-3131 (peptide)
peptide: DAVRCVPSWMCEGF
modifications: cysteine pairing not given here; also: fused to phage pIII, orientation and linker not given here
B14: Phage-3133 (peptide)
peptide: YERSCVPSWMCEGF
modifications: cysteine pairing not given here; also: fused to phage pIII, orientation and linker not given here
B15: Phage-3139 (peptide)
peptide: TAPVCVPWWMCEGF
modifications: cysteine pairing not given here; also: fused to phage pIII, orientation and linker not given here
B16: Phage-3129 (peptide)
peptide: GHQMCVPQWMCDAF
modifications: cysteine pairing not given here; also: fused to phage pIII, orientation and linker not given here
B17: Phage-3122 (peptide)
peptide: GMIQCRPAWMCAGL
modifications: cysteine pairing not given here; also: fused to phage pIII, orientation and linker not given here
B18: Phage-3126 (peptide)
peptide: FEILCRPLWMCSGF
modifications: cysteine pairing not given here; also: fused to phage pIII, orientation and linker not given here
B19: Phage-3127 (peptide)
peptide: LDKRCVPVWMCEGF
modifications: cysteine pairing not given here; also: fused to phage pIII, orientation and linker not given here
B20: Phage-3124 (peptide)
peptide: SMHWCEPMWMCAGF
modifications: cysteine pairing not given here; also: fused to phage pIII, orientation and linker not given here
B21: Phage-3125 (peptide)
peptide: VNVKCVPSWMCSGF
modifications: cysteine pairing not given here; also: fused to phage pIII, orientation and linker not given here
B22: Phage-3128 (peptide)
peptide: LELACKPEWMCVGF
modifications: cysteine pairing not given here; also: fused to phage pIII, orientation and linker not given here
B23: Phage-3123 (peptide)
peptide: GYPLCIPEWMCAGF
modifications: cysteine pairing not given here; also: fused to phage pIII, orientation and linker not given here

Biological target: T1, PSMA Fab
T1 construct: also called Anti-PSMA Fab; 006 PSMA Fab
Experiment: clonal phage ELISA on biotinylated PSMA Fab captured on neutravidin plates, anti-M13 HRP detection, blocking buffer alone
Procedure: (§1) Clonal phage were harvested as crude supernatants and screened via standard ELISAs. […] Prior to the addition of clonal phage. wells were incubated with blocking buffer and PSMA antigen or blocking buffer alone. Without washing or aspirating, clonal phage supernatants were then added to the wells and incubated for a short time. Wells were then washed followed by detection of bound phage using a horse radish conjugated anti-M13 antibody.

| Binder | Phage binding ELISA signal, Anti-PSMA Fab |
| --- | --- |
| B1 | 2.05 |
| B2 | 2.05 |

Biological target: T1, PSMA Fab
Experiment: clonal phage ELISA on captured PSMA Fab pre-incubated with PSMA antigen as competitor, anti-M13 HRP detection;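 note: crude clonal phage supernatants tested by ELISA, wells first treated with blocking buffer plus PSMA antigen, bound phage read out via HRP-linked anti-M13 antibody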
Procedure: as §1

| Binder | phage binding ELISA signal (Anti-PSMA Fab, PSMA antigen present) |
| --- | --- |
| B1 | 0.0904 |
| B2 | 0.106 |

Biological target: T2, PSMA Fab (006 PSMA Fab)
T2 construct: also called Anti-PSMA Fab; anti-PSMA Fab
Experiment: clonal phage ELISA; biotinylated PSMA Fab on neutravidin plate, blocking buffer alone; anti-M13 HRP detection;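 note: crude clonal phage supernatants added without washing to wells pretreated with blocking buffer with or without PSMA antigen, short incubation, then washed before detecting bound phage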
Procedure: as §1

| Binder | Phage binding ELISA signal, Anti-PSMA Fab |
| --- | --- |
| B3 | 2.06 |
| B4 | 2.06 |
| B5 | 2.06 |
| B6 | 2.05 |
| B7 | 2.05 |
| B8 | 2.06 |
| B9 | 2.06 |
| B10 | 2.06 |
| B11 | 2.05 |
| B12 | 2.06 |
| B13 | 2.06 |
| B14 | 2.06 |
| B15 | 2.05 |
| B16 | 2.06 |

Biological target: T3, 006 PSMA Fab (biotinylated (site not stated))
T3 construct: Biotinylated PSMA Fab captured on neutravidin coated plates in the clonal phage ELISA; also called Anti-PSMA Fab; anti-PSMA Fab
Experiment: clonal phage ELISA, biotinylated PSMA Fab on neutravidin plate, anti-M13 HRP detection; competitor PSMA antigen

| Binder | phage binding ELISA signal with PSMA antigen present |
| --- | --- |
| B17 | 0.0928 |
| SGALCVPLWMCTGF [Phage-3117] | 0.0979 |
| EFPLCVPAWMCSGF [Phage-3115] | 0.0859 |
| APVFCKPAWMCPWL [Phage-3121] | 0.0695 |
| B18 | 0.111 |
| B19 | 0.0828 |
| B20 | 0.0809 |
| B21 | 0.0739 |
| DYHYCEPAWMCFGF [Phage-3119] | 0.0726 |
| NEPWCVPAWMCTGF [Phage-3120] | 0.0834 |
| LESMCIPPWMCSGL [Phage-3118] | 0.109 |
| B22 | 0.0801 |
| B23 | 0.0968 |
| FHIMCQPEWMCLGF [Phage-3116] | 0.129 |

Biological target: T3, 006 PSMA Fab
Experiment: clonal phage ELISA, biotinylated PSMA Fab on neutravidin plate, anti-M13 HRP detection, no PSMA antigen
Procedure: as §1

| Binder | phage binding ELISA signal |
| --- | --- |
| B17 | 2.07 |
| SGALCVPLWMCTGF [Phage-3117] | 2.07 |
| EFPLCVPAWMCSGF [Phage-3115] | 2.08 |
| APVFCKPAWMCPWL [Phage-3121] | 2.07 |
| B18 | 2.06 |
| B19 | 2.06 |
| B20 | 2.07 |
| B21 | 2.07 |
| DYHYCEPAWMCFGF [Phage-3119] | 2.07 |
| NEPWCVPAWMCTGF [Phage-3120] | 2.07 |
| LESMCIPPWMCSGL [Phage-3118] | 2.07 |
| B22 | 2.06 |
| B23 | 2.07 |
| FHIMCQPEWMCLGF [Phage-3116] | 2.08 |

Biological target: T2, PSMA Fab (006 PSMA Fab)
Experiment: clonal phage ELISA; biotinylated PSMA Fab on neutravidin plate pre-incubated with PSMA antigen as competitor; anti-M13 HRP detection;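 note: crude clonal phage supernatants briefly incubated on wells preloaded with PSMA antigen in blocking buffer, or buffer only as control, bound phage detected with HRP-conjugated anti-M13 antibody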
Procedure: as §1

| Binder | Phage binding ELISA signal, Anti-PSMA Fab in presence of PSMA |
| --- | --- |
| B3 | 0.118 |
| B4 | 0.107 |
| B5 | 0.0991 |
| B6 | 0.0775 |
| B7 | 0.0788 |
| B8 | 0.0691 |
| B9 | 0.075 |
| B10 | 0.102 |
| B11 | 0.0802 |
| B12 | 0.0543 |
| B13 | 0.1 |
| B14 | 0.066 |
| B15 | 0.0757 |
| B16 | 0.0607 |
